Results as given in the supplement of paper PMC9876800.

Test system: peptide library, one residue held at a place counted from the S/T acceptor
Assay: relative phosphorylation of the sub-library (ratio to the mean residue at this position); higher = residue favoured
How it was run: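 Spots on streptavidin membranes were phosphorimaged and quantified by densitometry to measure phosphorylation of biotinylated degenerate peptide sub-libraries by purified recombinant kinases, human or orthologue constructs. The reactions ran in 384-well plates for 90 min under kinase-specific conditions, with peptides at 50 μM and 50 μM ATP spiked with γ-32P-ATP. Relative sub-library phosphorylation is the ratio to the mean residue at that position.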

Chain of MYO3A, construct: aa1-308, human (Q8NEV4 1-308, looked up): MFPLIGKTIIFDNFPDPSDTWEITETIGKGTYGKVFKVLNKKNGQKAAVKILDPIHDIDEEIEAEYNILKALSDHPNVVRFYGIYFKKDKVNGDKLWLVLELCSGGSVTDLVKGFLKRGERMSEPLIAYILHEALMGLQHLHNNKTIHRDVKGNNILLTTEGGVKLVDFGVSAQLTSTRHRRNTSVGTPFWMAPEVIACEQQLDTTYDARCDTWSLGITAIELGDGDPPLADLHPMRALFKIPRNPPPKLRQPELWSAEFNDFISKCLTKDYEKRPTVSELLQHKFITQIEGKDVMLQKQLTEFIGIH
Chain of NEK5, construct: aa1-508, human (Q6P3R8 1-508, looked up): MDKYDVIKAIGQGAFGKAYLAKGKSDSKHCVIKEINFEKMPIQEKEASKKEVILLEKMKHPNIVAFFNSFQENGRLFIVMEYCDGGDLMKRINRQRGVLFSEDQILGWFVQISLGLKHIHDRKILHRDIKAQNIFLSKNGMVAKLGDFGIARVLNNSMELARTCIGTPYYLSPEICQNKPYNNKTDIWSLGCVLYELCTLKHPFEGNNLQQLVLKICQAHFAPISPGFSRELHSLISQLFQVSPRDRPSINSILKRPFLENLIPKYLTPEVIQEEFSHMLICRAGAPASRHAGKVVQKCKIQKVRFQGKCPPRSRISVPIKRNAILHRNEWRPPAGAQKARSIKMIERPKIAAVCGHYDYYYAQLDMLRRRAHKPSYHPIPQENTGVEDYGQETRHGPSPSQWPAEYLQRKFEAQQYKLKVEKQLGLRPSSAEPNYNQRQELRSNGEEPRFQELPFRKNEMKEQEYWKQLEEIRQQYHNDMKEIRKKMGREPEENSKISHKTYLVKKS

MYO3A, construct: aa1-308, human (from UniProt Q8NEV4)
relative phosphorylation
Details	at +1	at +2	at +3	at +4	at -1	at -2	at -3	at -4	at -5
A fixed	0.412	0.7	0.734	0.973	0.971	0.873	1.07	0.953	1.14
D fixed	0.178	0.35	0.257	0.506	1.19	0.602	0.814	1.22	1.14
E fixed	0.151	0.271	0.229	0.425	0.697	0.382	0.772	1.19	1.08
F fixed	0.71	0.638	0.858	0.517	0.847	1.45	0.821	0.951	0.819
G fixed	0.559	0.815	0.815	1.34	1.81	0.691	1.05	1.12	1.12
H fixed	0.634	1.3	1.02	0.986	1.07	1.59	1.31	1.26	1.11
I fixed	1.65	0.572	0.801	0.72	0.345	0.684	0.789	0.801	0.823
K fixed	1.49	3.03	2.71	2.63	1.12	0.754	1.2	0.982	1.13
L fixed	2.17	0.728	1.08	0.771	0.976	0.498	0.683	0.74	0.629
M fixed	2.55	0.933	0.883	0.67	1.22	0.941	0.903	0.807	0.81
N fixed	0.61	0.737	0.835	0.853	1.29	1.21	1.16	1.19	1.06
P fixed	0.313	0.857	0.766	0.981	0.568	0.633	0.959	0.899	1.09
Q fixed	0.737	0.726	0.753	0.908	1.01	0.798	1.08	1.06	1.05
R fixed	1.95	2.8	2.77	2.32	1.26	1.2	1.16	0.835	1.18
V fixed	0.882	0.688	0.775	0.752	0.523	0.579	0.759	0.89	0.927
W fixed	1.01	0.908	0.756	1.01	0.886	1.49	1.26	1.11	0.83
Y fixed	0.985	0.947	0.956	0.643	1.21	2.62	1.21	0.993	1.08
pThr fixed	0.523	0.418	0.71	0.348	0.573	0.699	0.939	1.19	1.06
pTyr fixed	0.325	0.301	0.649	0.403	1.65	0.771	0.993	1.24	1.24

NEK5, construct: aa1-508, human (from UniProt Q6P3R8)
relative phosphorylation
Details	at +1	at +2	at +3	at +4	at -1	at -2	at -3	at -4	at -5
A fixed	1.01	0.985	0.773	0.99	1.04	1.3	1.01	1.05	1.21
D fixed	0.278	0.417	0.524	0.792	0.791	1.17	0.548	1.14	1.18
E fixed	0.295	0.352	0.418	0.76	0.848	1.18	0.597	1.08	0.891
F fixed	1.25	0.913	1.34	0.978	0.649	0.857	1.71	0.997	1
G fixed	1.39	0.768	1.02	1.29	0.889	1.65	1.5	1.32	1.45
H fixed	0.864	1.15	1.07	1.2	1.1	1.17	1.07	1.05	1.02
I fixed	0.943	0.752	0.978	0.639	0.403	0.475	0.308	0.616	0.532
K fixed	1.04	1.74	0.986	1.26	1.74	0.692	0.927	1.11	1.06
L fixed	1.06	0.885	1.33	0.946	1.08	1.08	1.54	0.803	0.882
M fixed	1.82	1.1	1.15	0.968	1.16	1.18	1.5	1.06	0.969
N fixed	1.01	1.14	1.12	1.13	1.35	1.48	0.849	1.12	1.15
P fixed	0.238	0.735	0.987	1.31	0.504	0.692	1.35	1.19	1.39
Q fixed	1.61	1.01	0.868	1.05	1.31	0.958	0.729	0.869	0.844
R fixed	1.36	2.28	1.26	1	1.78	0.826	0.798	0.994	1.09
V fixed	0.902	0.846	0.812	0.701	0.624	0.482	0.318	0.531	0.655
W fixed	1	0.873	1.29	1.07	0.643	0.945	1.22	1.25	0.896
Y fixed	0.933	1.05	1.07	0.914	1.08	0.846	1.03	0.826	0.771
pThr fixed	0.498	0.581	0.612	0.602	0.407	0.745	0.844	1	1.2
pTyr fixed	0.429	0.401	0.715	0.562	0.879	1.12	1.01	1.01	1.15
